Test results from patent CN112375146A.

Target: FMC63 scFv, His Tag
Assay: SPR; FMC63 scFv as analyte at 125, 62.5, 31.25, 15.625, 7.813, 3.906 and 1.953 nM

Kd: 1.08 nM
B1: Y45克隆号抗体 (antibody, V domains shown)
VH: EVKLLESGGGLVQPGGSLKLSCAASGDFRYFQWMSWVRQAPGKGLEWIGEIDNLDSITKYTPSLKDKFIISRDNAKNTLYLQMRKVRSEDTALYYCRAYRYMYDPRWGQGTSVTVSS
VL: DIVLTQSPASLAVSLGQRATISCRASKVSSTSSGYYMHWYQQKPGQPPKLLIYALNNLESGVPARFSGSGSGTDFTLNVHPVEEEDAATYYCQTFYGSELPFGSGTKLEIK
